Measured values published in patent publication US20240000938A1.

Experiments:
[1] = target: HLA-A*02 on cells (human); experiment: cell-based or functional assay
[2] = target: streptavidin-PE-HLA-A*02-pMHC or streptavidin-APC-HLA-A*02-pMHC tetramer (human); experiment: flow cytometry; HLA-A*02 positive donor primary T cells with CAR and A*02 blocker, before B2M knockout
[3] = target: streptavidin-PE-HLA-A*02-pMHC or streptavidin-APC-HLA-A*02-pMHC tetramer (human); experiment: flow cytometry; HLA-A*02 positive donor primary T cells with CAR and A*02 blocker, after B2M knockout with sgRNA B2M-3
[4] = target: streptavidin-PE-HLA-A*02-pMHC or streptavidin-APC-HLA-A*02-pMHC tetramer (human); experiment: flow cytometry; HLA-A*02 positive donor primary T cells with CAR and A*02 blocker, after B2M knockout with sgRNA B2M-6

Substance: HLA-A*02 PA2.1 ScFv LIR1 inhibitor (C1765) (from UniProt Q8NHL6 398-650)
- inhibition of IFNγ induction in primary T cells (HeLa cells) [1]: > 5 fold
- inhibition of IFNγ induction in primary T cells (SiHa cells) [1]: > 10 fold
- suppression of pan HLA scFv CAR signal (T2 cells) [1]: < 25 fold
- % of cells negative for the A*02 blocker probe [2]: > 85%
- % of the cell population stained with the A*02 blocker probe [2]: 14.8%
- % of the cell population stained with the A*02 blocker probe [3]: 40.7%
- % of the cell population stained with the A*02 blocker probe [4]: 44%
